# Key:
# [1] = biological target: gramicidin D (the natural mixture of linear gramicidins)
# [2] = biological target: gramicidin D (the natural mixture of linear gramicidins); remark: listed apart in the source
substance,measurement,setting,value
gramicidin D (the natural mixture of linear gramicidins) (peptide),"ANTS fluorescence quench rate by Tl+ entering DC22:1PC LUVs through gramicidin channels (GFA), rate relative to control, with remdesivir 1 to 3 μM (no observable effect at 1 μM)",[1],2 fold
same,"ANTS fluorescence quench rate by Tl+ entering DC22:1PC LUVs through gramicidin channels (GFA), rate relative to DMSO control, with ivermectin 1 to 10 μM (12-fold at 1 μM)",[2],17 fold
